Measurements published in patent US11998613B2, “Antibody-drug conjugates containing an anti-mesothelin antibody and uses thereof” (DEVELOPMENT CENTER FOR BIOTECHNOLOGY, priority 2020, dated 2024).
Like-named read-outs stand apart in the source and are kept apart here. Non-standard residues stand in square brackets, D forms with d. Residues, ends and D or L forms follow the SMILES beside them. *: point of attachment. Dolaproine = CO[C@@H]([C@@H]1CCCN1)[C@@H](C)C(=O)O; Dil = CC[C@H](C)[C@H](NC)[C@@H](CC(=O)O)OC; X1 = C[C@@H](N*)[C@@H](O)c1ccccc1; NMeV = CN[C@H](C(=O)O)C(C)C

What was measured:
[1] = system: Ovarian carcinoma cell line OVCAR-3 (MSLN+); test: In vitro cytotoxicity, CellTiter-Glo luminescent cell viability assay, OVCAR-3; assay type: cell-based, human; settings: read-out: Relative IC50 (nM of toxic payload/ADCs)
Procedure: (§1) The KLM-1 & OVCAR-3 cell lines were maintained in an atmosphere of 5% CO2 in a humidified 37° C. incubator. The day before treatment, cells were collected and seeded into 96-well plates (4,000 cells per well). On the second day, cells were treated with 3-fold serial dilution concentration of toxic payloads and ADCs. Each treatment was performed in eight triplicate data points. After the treatment of 72 hours, cell viability was assessed by CellTiter-Glo® kit (Promega) according to the manufacturer's instruction. At the end of the incubation, luminescence was measured using a SpectraMax i3x Multi Mode Detection Platform (Molecular Devices). Compound cytotoxicity was evaluated in comparison to cells treated with 0.05% PBS (ADCs) or 0.05% DMSO (toxic payload). IC50 values were calculated by fitting viability data with a four-parameter logistic equation using GraphPad prism 5.0 software.

[2] = system: Pancreatic cancer cell line KLM-1 (MSLN+); test: In vitro cytotoxicity, CellTiter-Glo luminescent cell viability assay, KLM-1; assay type: cell-based, human; settings: KLM-1, 72 hours treatment; read-out: Relative IC50 (nM of toxic payload/ADCs)
Procedure: as §1, with “Pancreatic cancer cell line KLM-1 was respectively grown in RPMI 1640 Medium (ATCC modification) medium supplemented with 10% fetal bovine serum. Ovarian carcinoma cell line OVCAR-3 was grown in RPMI 1640 Medium (ATCC modification) medium supplemented with 20% fetal bovine serum. The KLM-1” for “The KLM-1”

[3] = molecular target: mesothelin protein (Homo sapiens, UniProt Q13421); test: Affinity measurements and kinetic analysis using BIAcore (SPR), mesothelin immobilised; assay type: binding
mesothelin protein, sequence (Q13421 with tags, fused parts or gaps): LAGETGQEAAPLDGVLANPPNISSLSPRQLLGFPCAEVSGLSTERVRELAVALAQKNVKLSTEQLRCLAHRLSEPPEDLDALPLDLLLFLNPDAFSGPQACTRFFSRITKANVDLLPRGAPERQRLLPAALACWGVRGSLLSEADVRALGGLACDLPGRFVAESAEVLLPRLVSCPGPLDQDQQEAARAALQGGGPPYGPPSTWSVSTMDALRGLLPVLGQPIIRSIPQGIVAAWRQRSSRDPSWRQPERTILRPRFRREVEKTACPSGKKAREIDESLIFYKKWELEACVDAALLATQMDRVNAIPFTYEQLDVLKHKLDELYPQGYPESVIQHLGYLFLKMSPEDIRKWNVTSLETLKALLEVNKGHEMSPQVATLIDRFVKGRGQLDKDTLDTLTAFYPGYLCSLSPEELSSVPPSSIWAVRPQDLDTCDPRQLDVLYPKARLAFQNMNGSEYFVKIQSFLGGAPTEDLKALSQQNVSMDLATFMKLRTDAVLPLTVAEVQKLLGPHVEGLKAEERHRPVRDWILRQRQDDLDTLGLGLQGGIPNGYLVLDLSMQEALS
Procedure: To know the biding kinetics difference among individual antibodies, surface plasmon resonance (SPR) measurement with a BIAcore T200 (Cytiva Inc.) was used as previously described (Karlsson & Falt, (1997) J. Immunol Methods 200:121-133). Carboxymethylated dextran biosensor chips (CM5, Cytiva Inc.) were activated with N-ethyl-N′-(3-dimethylaminopropyl)-carbodiimide hydrochloride (EDC) and N-hydroxysuccinimide (NHS) according to the supplier's instructions. Mesothelin protein was diluted with 10 mM sodium acetate, pH 4.0, into 5 μg/ml before injection at a flow rate of 10 μL/minute to achieve approximately 1500 response units (RU) of coupled protein followed by the injection of 1M ethanolamine to block unreacted groups. For kinetics measurements, two-fold serial dilutions of anti-mesothelin mAb (0.3125 nM to 40 nM) were injected in HBS-EP+ Biacore running buffer provided by the manufacturer (Cytiva Inc.) at 25 degree C. at a flow rate of 30 μL/min, and binding responses on the mesothelin protein were corrected by subtraction of responses on a blank flow cell. Association rates (kon or ka) and dissociation rates (koff or kd) were calculated using a simple one-to-one Langmuir binding model with separate fittings of kon and koff was used. (Cytiva.™. Biacore Insight Evaluation Software).

[4] = system: KLM-1 human pancreatic cancer xenograft; test: KLM-1 xenograft model (Example 45); settings: 15 mg/kg IV once weekly for 3 weeks
Procedure: Formulations respectively comprising test article DCBPR2002-4(DBCO-vc-MMAE)(15 mg/kg), test article DCBPR2002-4(DBCO-vc-seco-DUBA)(15 mg/kg), test article DCBPR2002-4(DBCO-s-DM1) (15 mg/kg), test article DCBPR2002-2(DBCO-vc-MMAE)-2(DBCO-vc-seco-DUBA) (15 mg/kg), test article DCBPR2002-2(DBCO-vc-MMAE)-2(DBCO-s-DM1) (15 mg/kg), test article DCBPR2002-2(DBCO-vc-seco-DUBA)-2(DBCO-s-DM1) (15 mg/kg), and a corresponding vehicle were formulated by diluting the stock with a 25 mM sodium citrate buffer (pH6.5). Each of the formulations was administered intravenously (IV) once weekly for three weeks.
The KLM-1 cells were maintained in vitro as a monolayer culture in RPMI-1640 medium supplemented with 10% fetal bovine serum at 37° C. in an atmosphere of 5% CO2 in air. The tumor cells were routinely sub-cultured twice weekly by trypsin-EDTA treatment. The cells growing in an exponential growth phase were harvested and counted for tumor inoculation.
Male NOD SCID mice at age of 6-7 weeks were purchased from BioLasco Taiwan Co., LTD. and quarantined for one week. Five mice were housed in each cage. All animals were hosted in the animal facility with a 12-h light/12-h dark cycle at 19-25° C. Animals had free access to rodent pellet foods and water ad libitum.
KLM-1 cells were subcutaneously (SC) implanted (4×10^6 cells in 1:1 PBS/matrigel mixture at 0.1 mL per mouse) into the right flank of male NOD SCID mice. When the average tumor volume had reached 300 mm^3, the mice were randomly divided into 7 groups (N=6 per group). Each of the vehicle, DCBPR2002-4(DBCO-vc-MMAE), DCBPR2002-4(DBCO-vc-seco-DUBA), DCBPR2002-4(DBCO-s-DM1), DCBPR2002-2(DBCO-vc-MMAE)-2(DBCO-vc-seco-DUBA), DCBPR2002-2(DBCO-vc-MMAE)-2(DBCO-s-DM1), DCBPR2002-2(DBCO-vc-seco-DUBA)-2(DBCO-s-DM1) was intravenously administered as 15 mg/kg once weekly for 3 weeks.
The tumor volumes, body weights, mortality, and signs of overt toxicity were monitored and recorded three times weekly for 28 days. Tumor volumes were measured three times per week using calipers and calculated according to the formula: Tumor Volume=(w2×l)/2, where w=width and l=length in diameter (mm) of the tumor. […] One-way ANOVA followed by Dunnett's test was applied for comparison between the vehicle and test article-treated groups. Differences are considered significant at *P<0.05. Animals were weighed three times weekly until the completion of the study.

[5] = BIAcore T200, 25 degree C, 1:1 Langmuir model

Work on `CC[C@@]1(O)C(=O)OCc2c1cc1n(c2=O)Cc2c-1nc1cc(F)c(C)c3c1c2[C@@H](N)CC3` [Exatecan, reference compound] yielded an IC50 ([1]; Homo sapiens, OVCAR-3, 72 h) of 20.1 nM.

For `COc1cc2cc(c1Cl)N(C)C(=O)C[C@H](OC(=O)[C@H](C)N(C)C(=O)CCS)[C@]1(C)O[C@H]1[C@H](C)[C@@H]1C[C@@](O)(NC(=O)O1)[C@H](OC)/C=C/C=C(\C)C2` [DM1, reference compound], the IC50 ([1]; OVCAR-3, 72 hours treatment) was 1.6 nM and the IC50 [2] was 2.1 nM.

In the case of `CC[C@H](C)[C@@H]([C@@H](CC(=O)N1CCC[C@H]1[C@H](OC)[C@@H](C)C(=O)N[C@H](C)[C@@H](O)c1ccccc1)OC)N(C)C(=O)[C@@H](NC(=O)[C@@H](NC)C(C)C)C(C)C` [MMAE, monomethyl auristatin E, reference compound] (H-[NMeV]V[Dil][Dolaproine]-X1), the IC50 ([1]; OVCAR-3, 72 hours treatment) is reported as 0.3 nM and the IC50 [2] is reported as 0.3 nM.

“SS1: mouse anti-mesothelin antibody clone SS1, SEQ ID NOs: 7 and 8, of U.S. Pat. No. 7,081,518 B1; expressed as human Fc chimera [reference compound]” was tested, and the “Rmax(RU)” value ([3]; BIAcore T200) was 218.2 RU, the “ka” value [3, 5] was 3.415e+06 M⁻¹ s⁻¹ and the “kd” value [3, 5] was 1.194e-05 s⁻¹. For the same molecule, the “kd” value ([3]; BIAcore T200, 25 degree C, 1:1 Langmuir model, listed as chimera SS1 mAb) was 1.194e-05 s⁻¹.

`CC[C@@]1(O)C(=O)OCc2c1cc1n(c2=O)Cc2c-1nc1cc(F)c(C)c3c1c2[C@@H](NC(=O)CO)CC3` [DXd, reference compound] showed an IC50 ([1]; OVCAR-3, 72 hours treatment) of over 100 nM.

B1: DCBPR2002-2(DBCO-vc-seco-DUBA)-2(DBCO-s-DM1): dual-payload ADC: DCBPR2002-2(DBCO-vc-seco DUBA)-2Az reacted with DBCO-S-DM1; DAR ~4 (conjugate)
VH: QVQLVQSGAEVKKPGASVKVSCKASGYSFTGYTMNWVRQAPGQGLEWMGLITPYNGASSYNQKFRGRVTMTRDTSISTAYMELSRLRSDDTAVYYCARGGYDGRGFDYWGQGTLVTVSS
VL: EIVLTQSPATLSLSPGERATLSCSASSSVSYMHWYQQKPGQAPRLLIYDTSKLASGIPARFSGSGSGTDFTLTISSLEPEDFAVYYCQQWSKHPLTFGQGTKVEIKR
In the case of B1, the body weight changes [4] is reported as “No body weight loss was observed”, the “ranking of efficacy potency” value [4] is reported as “DCBPR2002-4(DBCO-vc-seco-DUBA)=DCBPR2002-2(DBCO-vc-MMAE)-2(DBCO-vc-seco-DUBA)=DCBPR2002-2(DBCO-vc-seco-DUBA)-2(DBCO-s-DM1)>DCBPR2002-4(DBCO-vc-MMAE)>DCBPR2002-2(DBCO-vc-MMAE)-2(DBCO-s-DM1)>DCBPR2002-4(DBCO-s-DM1)” and the IC50 ([1]; OVCAR-3, 72 hours treatment) is reported as 36.3 nM. For the same molecule, the IC50 [2] was 27 nM.

B2: DCBPR2002-4(DBCO-s-DM1) (conjugate)
VH: QVQLVQSGAEVKKPGASVKVSCKASGYSFTGYTMNWVRQAPGQGLEWMGLITPYNGASSYNQKFRGRVTMTRDTSISTAYMELSRLRSDDTAVYYCARGGYDGRGFDYWGQGTLVTVSS
VL: EIVLTQSPATLSLSPGERATLSCSASSSVSYMHWYQQKPGQAPRLLIYDTSKLASGIPARFSGSGSGTDFTLTISSLEPEDFAVYYCQQWSKHPLTFGQGTKVEIKR
In the case of B2, the body weight changes [4] is reported as “No body weight loss was observed”, the “ranking of efficacy potency” value [4] is reported as “DCBPR2002-4(DBCO-vc-seco-DUBA)=DCBPR2002-2(DBCO-vc-MMAE)-2(DBCO-vc-seco-DUBA)=DCBPR2002-2(DBCO-vc-seco-DUBA)-2(DBCO-s-DM1)>DCBPR2002-4(DBCO-vc-MMAE)>DCBPR2002-2(DBCO-vc-MMAE)-2(DBCO-s-DM1)>DCBPR2002-4(DBCO-s-DM1)” and the IC50 ([1]; OVCAR-3, 72 hours treatment) is reported as 2.6 nM. The IC50 [2] was 13.9 nM.

B3: DCBPR2002-2(DBCO-vc-MMAE)-2(DBCO-s-DM1): dual-payload ADC: DCBPR2002-2(DBCO-vc-MMAE)-2Az reacted with DBCO-S-DM1; DAR ~4 (conjugate)
VH: QVQLVQSGAEVKKPGASVKVSCKASGYSFTGYTMNWVRQAPGQGLEWMGLITPYNGASSYNQKFRGRVTMTRDTSISTAYMELSRLRSDDTAVYYCARGGYDGRGFDYWGQGTLVTVSS
VL: EIVLTQSPATLSLSPGERATLSCSASSSVSYMHWYQQKPGQAPRLLIYDTSKLASGIPARFSGSGSGTDFTLTISSLEPEDFAVYYCQQWSKHPLTFGQGTKVEIKR
B3 was tested, and the body weight changes [4] was “No body weight loss was observed”, the “ranking of efficacy potency” value [4] was “DCBPR2002-4(DBCO-vc-seco-DUBA)=DCBPR2002-2(DBCO-vc-MMAE)-2(DBCO-vc-seco-DUBA)=DCBPR2002-2(DBCO-vc-seco-DUBA)-2(DBCO-s-DM1)>DCBPR2002-4(DBCO-vc-MMAE)>DCBPR2002-2(DBCO-vc-MMAE)-2(DBCO-s-DM1)>DCBPR2002-4(DBCO-s-DM1)” and the IC50 ([1]; OVCAR-3, 72 hours treatment) was 4.6 nM. It also gave an IC50 [2] of 15.4 nM.
